For assay [1], the target named is T1, human 4-1BB on cells (human, UniProt Q07011 24-255). The experiment in a line: cell-based or functional assay.
The target of assay [2] is T1, human 4-1BB on cells. Briefly: cell-based or functional assay. The source holds these as a separate data set.
For assay [3], the target named is T1, human 4-1BB on cells. Briefly: flow cytometry, Jurkat/NFkB-Luc/h41BB cells. The procedure:
Binding was detected by using a labeled secondary antibody and measuring fluorescence on a flow cytometer.
Assay set up: OVCAR-3+/−PD-L1 cells were lifted with trypsin, washed and resuspended in stain buffer (2% FBS in PBS). OVCAR-3 and Jurkat/NFkB-Luc/h41BB cells were counted and added to wells at 200,000 cells/well. Cells, in wells of 96-well round bottom plates, were pelleted by centrifugation and resuspended in 150 ul stain buffer (PBS containing 2% FBS). Plates were once again centrifuged and subsequently 100 ul of stain buffer alone or stain buffer containing antibody, titrated from 200 nM to 12 pM in a 9-point 1:4 dose titration were added to cells. Cells and antibodies were incubated for 30 min on ice and then washed in stain buffer. Cells were resuspended in 2 μg/ml allophycocyanin (APC) conjugated goat-anti human secondary antibody. A secondary antibody alone control was included. Cells and secondary were incubated for 30 min on ice and then washed in stain buffer. After a subsequent wash with PBS (containing no FBS), cells were resuspended in viability dye (reconstituted in DMSO according to the manufacturer's protocol and diluted 1:1000 in PBS) and incubated for 20 min on ice. They were then washed with stain buffer and resuspended in 2% PFA for 30 min at 4 C. After washing they were filtered and analyzed by flow cytometry. EC₅₀ values of the antibodies were determined from a 4 parameter logistic equation over a 9-point dose response curve (including secondary only control) using GraphPad Prism software.

Assay [4] has as its target T2, human 4-1BB expressed with a C-terminal myc-myc-hexahistidine tag (h4-1BB.mmH) (human).
T2 construct: also called hCD137 (4-1BB) mmH
Briefly: blocking ELISA, 0.25 nM h4-1BB-mmh binding to coated 6His-Flag-h4-1BBL. The procedure:
The 4-1BB blocking assay was performed similarly to the PD-L1 blocking assay. 6His-Flag-h4-1BBL protein ([…] in PBS) was coated onto a 96-well microtiter plate overnight at 4 °C. […] The plates were developed using TMB substrate solution (BD Biosciences) and the absorbance at 450 nm was measured on a SpectraMax I3x plate reader.
Binding data were analyzed using a sigmoidal (four-parameter logistic) dose-response model with GraphPad Prism™ software. […] The percent blocking of tested antibodies at the highest tested concentration of 100 nM was calculated based on the formula shown below: […]
In general terms: An ELISA detects its analyte on a solid surface through an enzyme-linked reagent.

The target in assay [5] is T2, human 4-1BB expressed with a C-terminal …. The experiment in a line: SPR Biacore, 25 C, antibody captured via anti-hFc, h4-1BB.mmH as analyte. The procedure: The CM5 Biacore sensor surface was derivatized by amine coupling with a monoclonal mouse anti-human Fc antibody. All Biacore binding studies were performed in a buffer composed of 0.01M HEPES pH 7.4, 0.15M NaCl, 3 mM EDTA, 0.05% v/v Surfactant P20 (HBS-EP running buffer). […] Antibody-reagent association was monitored for 5 minutes while dissociation in HBS-EP running buffer was monitored for 10 minutes. At the end of each cycle, the antibody capture surface was regenerated using a 10 sec injection of 20 mM phosphoric acid. All binding kinetics experiments were performed at 25° C.
Data analysis: The specific SPR-Biacore sensorgrams were obtained by a double referencing procedure. The double referencing was performed by first subtracting the signal of each injection over a reference surface (anti-hFc or anti-mFc) from the signal over the experimental surface (anti-hFc-captured anti-PD-L1×4-1BB antibodies) thereby removing contributions from refractive index changes. In addition, running buffer injections were performed to allow subtraction of the signal changes resulting from the dissociation of captured antibodies or antigens from the coupled anti-hFc or anti-mFc surface. Kinetic association (kₐ) and dissociation (kd) rate constants were determined by fitting the real-time sensorgrams to a 1:1 binding model using Scrubber v2.0c curve fitting software. Binding dissociation equilibrium constants (KD) and dissociative half-lives (t½) were calculated from the kinetic rate constants as: […]
(Surface plasmon resonance follows binding to a sensor surface in real time, without labels.)

Experimental findings from patent US20250043017A1 (Regeneron, published 2025) are described below.

T2 sequence (chain, as listed by the source limits assumed): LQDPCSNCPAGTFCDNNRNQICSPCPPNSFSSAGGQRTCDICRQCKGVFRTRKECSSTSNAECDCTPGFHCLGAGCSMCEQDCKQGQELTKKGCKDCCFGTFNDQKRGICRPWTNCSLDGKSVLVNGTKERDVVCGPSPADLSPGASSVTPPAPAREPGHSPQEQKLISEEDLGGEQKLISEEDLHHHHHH
T1 sequence (Q07011 24-255): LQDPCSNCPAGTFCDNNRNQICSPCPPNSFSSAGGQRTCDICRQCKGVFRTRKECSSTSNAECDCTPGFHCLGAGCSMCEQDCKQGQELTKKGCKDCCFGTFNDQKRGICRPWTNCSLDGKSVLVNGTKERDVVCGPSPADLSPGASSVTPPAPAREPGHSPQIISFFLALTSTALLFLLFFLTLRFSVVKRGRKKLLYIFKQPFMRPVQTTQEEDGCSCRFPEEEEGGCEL

B1: mAb25921 (antibody, V domains shown)
VH: QVQLVQSGAEVKKPGASVKVSCKASAYTFTSYGFSWVRQAPGQGLEWMGWISTSNGYTNYAQKIQDRVTMTTDTSTSTAYMELRSLRSDDTAVYYCASLSNWVSFFDYWGQGTLVTVSS
VL: not shown
notes: bivalent parental anti-4-1BB antibody of REGN6191; also called 25921P2; a-4-1BB
For B1, in the assay with human 4-1BB on cells [1], the “NFkB-luciferase MAX (RLU), Jurkat/NFkB-Luc/h41BB + HEK293/hCD20/hPSMA” value stood at 18000 RLU and the “NFkB-luciferase MAX (RLU), Jurkat/NFkB-Luc/h41BB + HEK293/hCD20/hPSMA/hPD-L1” value is 18000 RLU. Besides, in the assay with human 4-1BB on cells [2], the “IL2 release MAX, human CD3+ T cells + HEK293/hCD20/hPSMA + CD20xCD3” value was 10 pg/mL; the “IL2 release MAX, human CD3+ T cells + HEK293/hCD20/hPSMA, no CD20xCD3” value was 1 pg/mL; the “IL2 release MAX, human CD3+ T cells + HEK293/hCD20/hPSMA/hPD-L1 + CD20xCD3” value was determined as 5.8 pg/mL; the “IL2 release MAX, human CD3+ T cells + HEK293/hCD20/hPSMA/hPD-L1, no CD20xCD3” value is 1 pg/mL. In the assay with human 4-1BB on cells [3], the EC50 (usually the concentration giving half of the maximal effect) is 0.287 nM, the “Fold change (max MFI over secondary antibody alone)” value stood at 76.9 fold and the “Max [gMFI]” value was 170000 gMFI. For the same molecule, in assay [4], the “% Blocking at 100 nM mAb” value is 94% and the IC50 (commonly the concentration that inhibits the measured activity by half) amounted to 0.75 nM.

B2: mAb9373 (antibody, V domains shown)
VH: QVQLVQSGTEVKKPGASVKVSCKASGYTFTAYYMHWVRQAPGQGLDWMGWISPNSGFTNYAQKFQGRVTMTRDTSINTFYMELSGLRSDDTAVYYCAREGSTHHNSFDPWGQGTLVTVSS
VL: not shown
B2: in the assay with human 4-1BB on cells [1], the “NFkB-luciferase MAX (RLU), Jurkat/NFkB-Luc/h41BB + HEK293/hCD20/hPSMA” value stood at 18500 RLU and the “NFkB-luciferase MAX (RLU), Jurkat/NFkB-Luc/h41BB + HEK293/hCD20/hPSMA/hPD-L1” value was found to be 18500 RLU. Besides, in the assay with human 4-1BB on cells [2], the “IL2 release MAX, human CD3+ T cells + HEK293/hCD20/hPSMA + CD20xCD3” value was found to be 11.3 pg/mL; the “IL2 release MAX, human CD3+ T cells + HEK293/hCD20/hPSMA, no CD20xCD3” value stood at 2.5 pg/mL; the “IL2 release MAX, human CD3+ T cells + HEK293/hCD20/hPSMA/hPD-L1 + CD20xCD3” value is 10.3 pg/mL; the “IL2 release MAX, human CD3+ T cells + HEK293/hCD20/hPSMA/hPD-L1, no CD20xCD3” value came to 2.5 pg/mL.

B3: REGN6188 (bispecific antibody, human IgG4 S228P, kappa)
heavy 1: EVQLVESGGGLVQPGRSLRLSCAASGFTFDDYALHWVRQAPGKGLEWVSGISWTGGTIDYADSVKGRFTISRDNAKNSLYLQMSSLRTEDTAIYYCTRDIRGNWKYGGWFDPWGQGTLVTVSSASTKGPSVFPLAPCSRSTSESTAALGCLVKDYFPEPVTVSWNSGALTSGVHTFPAVLQSSGLYSLSSVVTVPSSSLGTKTYTCNVDHKPSNTKVDKRVESKYGPPCPPCPAPPVAGPSVFLFPPKPKDTLMISRTPEVTCVVVDVSQEDPEVQFNWYVDGVEVHNAKTKPREEQFNSTYRVVSVLTVLHQDWLNGKEYKCKVSNKGLPSSIEKTISKAKGQPREPQVYTLPPSQEEMTKNQVSLTCLVKGFYPSDIAVEWESNGQPENNYKTTPPVLDSDGSFFLYSRLTVDKSRWQEGNVFSCSVMHEALHNHYTQKSLSLSLGK
heavy 2: EVQLVESGGGLVQPGGSLRLSCVASGFTFSSYEMNWVRQAPGKGLEWVSYISNSGTTIYYAGSVKGRFTISRDNAKKSLYLHMNSLRAEDTAVYYCAREGTIFGTVHYYFALDVWGQGTTVTVSSASTKGPSVFPLAPCSRSTSESTAALGCLVKDYFPEPVTVSWNSGALTSGVHTFPAVLQSSGLYSLSSVVTVPSSSLGTKTYTCNVDHKPSNTKVDKRVESKYGPPCPPCPAPPVAGPSVFLFPPKPKDTLMISRTPEVTCVVVDVSQEDPEVQFNWYVDGVEVHNAKTKPREEQFNSTYRVVSVLTVLHQDWLNGKEYKCKVSNKGLPSSIEKTISKAKGQPREPQVYTLPPSQEEMTKNQVSLTCLVKGFYPSDIAVEWESNGQPENNYKTTPPVLDSDGSFFLYSRLTVDKSRWQEGNVFSCSVMHEALHNRFTQKSLSLSPGK
light: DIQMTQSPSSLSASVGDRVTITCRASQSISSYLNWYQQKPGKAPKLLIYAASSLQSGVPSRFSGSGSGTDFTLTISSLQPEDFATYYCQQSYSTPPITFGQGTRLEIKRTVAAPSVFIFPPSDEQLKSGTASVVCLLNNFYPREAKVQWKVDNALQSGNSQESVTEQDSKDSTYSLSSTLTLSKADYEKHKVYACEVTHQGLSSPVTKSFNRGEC
notes: common light chain 1-39; also called R6188; PD-L1x4-1BB REGN6188
Take B3: in the assay with human 4-1BB on cells [1], the “NFkB-luciferase EC50, Jurkat/NFkB-Luc/h41BB + HEK293/hCD20/hPSMA/hPD-L1” value came out at 0.558 nM; the “NFkB-luciferase MAX (RLU), Jurkat/NFkB-Luc/h41BB + HEK293/hCD20/hPSMA” value was found to be 35900 RLU; the “NFkB-luciferase MAX (RLU), Jurkat/NFkB-Luc/h41BB + HEK293/hCD20/hPSMA/hPD-L1” value was 562000 RLU. In the assay with human 4-1BB on cells [2], the “IL2 release EC50, human CD3+ T cells + HEK293/hCD20/hPSMA/hPD-L1 + CD20xCD3” value was found to be 0.926 nM; the “IL2 release MAX, human CD3+ T cells + HEK293/hCD20/hPSMA + CD20xCD3” value was 7.2 pg/mL; the “IL2 release MAX, human CD3+ T cells + HEK293/hCD20/hPSMA, no CD20xCD3” value was determined as 5.1 pg/mL; the “IL2 release MAX, human CD3+ T cells + HEK293/hCD20/hPSMA/hPD-L1 + CD20xCD3” value turned out to be 45.8 pg/mL. Besides, the “IL2 release MAX, human CD3+ T cells + HEK293/hCD20/hPSMA/hPD-L1, no CD20xCD3” value with human 4-1BB on cells [2] amounted to 5.1 pg/mL. In the assay with human 4-1BB on cells [3], the “Fold change (max MFI over secondary antibody alone)” value was 22.9 fold and the “Max [gMFI]” value is 52000 gMFI. The “% Blocking at 100 nM mAb” value in assay [4] was determined as 33%. In addition, in assay [5], the “270 nM h4-1BB-mmH Bind (RU)” value came out at 25.4 RU; binding was characterised by a dissociation constant (Kd) of 128 nM; the koff – broadly, the rate constant with which the complex falls apart – was found to be 0.0948 s⁻¹; the kon (as a rule, the rate constant with which the complex forms) amounted to 742000 M⁻¹ s⁻¹. Also, the t½ (usually the time in which the quantity being followed falls by half) in assay [5] came to 6 s.
